{"source": "paper PMC8759595", "key": {"[1]": {"molecular_target": "endogenous VAPB (COS-7 cells)", "experiment": "co-immunoprecipitation (anti-FLAG) with quantified immunoblot", "conditions": "COS-7 cell lysate; n = 5; parent: est. 1.0; read off a plot"}, "[2]": {"molecular_target": "endogenous VAPB (COS-7 cells)", "experiment": "co-immunoprecipitation (Myc-TRAP) with quantified immunoblot", "conditions": "read off a plot; for other: remaining VAPB binding (% of untreated) (% of untreated): COS-7 cell lysate treated with λ-phosphatase before IP, relative to phosphatase-inhibitor sample; for ratio to parent: COS-7 cell lysate, at least three independent IPs, parent: est. 1.0"}}, "data": [{"substance": "FLAG-ACBD4 (from UniProt Q8NC06) S166A; S169A; S171A", "values": [{"measurement": "ratio to parent", "setting": "[1]", "result": 1.7}]}, {"substance": "Myc-ACBD5 (from UniProt Q5T8D3-2) S263E", "values": [{"measurement": "other: remaining VAPB binding (% of untreated) (% of untreated)", "setting": "[2]; parent: est. 4.5", "result": 8}]}, {"substance": "FLAG-ACBD4 (from UniProt Q8NC06) S166E; S169E; S171E", "values": [{"measurement": "ratio to parent", "setting": "[1]", "result": 4.4}]}, {"substance": "Myc-ACBD5 (from UniProt Q5T8D3-2) S259A; S261A; S263A", "values": [{"measurement": "ratio to parent", "setting": "[2]", "result": 0.15}]}, {"substance": "Myc-ACBD5 (from UniProt Q5T8D3-2) T258A; S259A", "values": [{"measurement": "ratio to parent", "setting": "[2]", "result": 0.53}]}, {"substance": "Myc-ACBD5 (from UniProt Q5T8D3-2) S259E", "values": [{"measurement": "other: remaining VAPB binding (% of untreated) (% of untreated)", "setting": "[2]; parent: est. 4.5", "result": 7.5}]}, {"substance": "Myc-ACBD5 (from UniProt Q5T8D3-2) S259A; S261A", "values": [{"measurement": "ratio to parent", "setting": "[2]", "result": 0.3}]}, {"substance": "Myc-ACBD5 (from UniProt Q5T8D3-2) S261E", "values": [{"measurement": "other: remaining VAPB binding (% of untreated) (% of untreated)", "setting": "[2]; parent: est. 4.5", "result": 21}]}, {"substance": "Myc-ACBD5 (from UniProt Q5T8D3-2) S261A; S263A", "values": [{"measurement": "ratio to parent", "setting": "[2]", "result": 0.22}]}, {"substance": "Myc-ACBD5 (from UniProt Q5T8D3-2) S259E; S261E; S263E", "values": [{"measurement": "other: remaining VAPB binding (% of untreated) (% of untreated)", "setting": "[2]; parent: est. 0.5", "result": 22}]}, {"substance": "Myc-ACBD5 (from UniProt Q5T8D3-2) S263A", "values": [{"measurement": "ratio to parent", "setting": "[2]", "result": 0.42}]}, {"substance": "Myc-ACBD5 (from UniProt Q5T8D3-2) S259A", "values": [{"measurement": "ratio to parent", "setting": "[2]", "result": 0.81}]}, {"substance": "Myc-ACBD5 (from UniProt Q5T8D3-2) S261A", "values": [{"measurement": "ratio to parent", "setting": "[2]", "result": 0.35}]}]}
